# Reference: patent US8093037B2, “Engineered microorganisms with enhanced fermentation activity” (Verdezyne, Inc., priority 2009, dated 2012)
# What was measured:
# [1] = Heterologous xylose isomerase expression in yeast (active yes/no); type: cell-based, Saccharomyces cerevisiae; settings: xylose isomerase of donor organism expressed in engineered yeast (S. cerevisiae)
# [2] = EDA activity assay with saturating amounts of E. coli expressed EDD extract; type: biochemical, Saccharomyces cerevisiae
# Method: Grow 5 ml LB-Kan preps of BF1055 (BL21/DE3 with pET26b empty vector) and BF1706 (BL21DE3 with pET26b+E. coli EDD).
# Grow 50 ml LB-Kan prep of BF1055, 2% (v/v) inoculate.
# Grow 50 ml prep of BF1706 using Novagen's Overnight Express (46.45 ml LB-Kan, 1 ml solution 1, 2.5 ml solution 2, 50 μl solution 3, 5 μl of 1M MnCl2, 50 μl of 0.5 M FeCl2), 2% (v/v) inoculate.
# Inoculate to OD600 of 0.2.
# EDD extractions (adapted from Chemyan et al, Protein Science 16:2368-2377, 2007): • 1) Pellet cells in 50 ml conical tubes, 4° C., 3,000 rpm, 10 mins, discard supernatant. • 2) Resuspend in 2 ml degassed PDGH buffer (20 mM MES pH 6.5, 30 mM NaCl, 5 mM MnCl2, 0.5 mM FeCl2, 10 mM 2-mercaptoethanol, 10 mM cysteine, sparged with nitrogen gas). Move to hungate tube. • 3) Add 0.1% Triton X-100, 10 ng/ml DNase, 10 μg/ml PMSF, 10 μg/ml TAME (Nα-(p-toluene sulfonyl)-L-arginine methyl ester), 100 μg/ml lysozyme. • 4) Sparge hungate tube with nitrogen gas, cap and seal. Incubate 2 hours at 37° C., swirl occasionally. • 5) Clarify by centrifugation in 2-ml tube, 4° C., 10 mins, 14,000 rpm. Keep supernatant. • 6) Treat with 150 mM pyruvate and 10 mM sodium cyanoborohydride (work in hood) to inactivate aldolase activity. Incubate 30 mins at room temperature. • 7) During incubation, pre-equilibrate PD-10 column from GE • a. Remove top cap, pour off storage buffer. • b. Cut off bottom tip, fit in 50 ml conical with adapter. • c. Pour 5 ml of 20 mM MES buffer, pH 6.5 (total of 5 times). Discard flow-through. • 8) Run sample through column, then add MES buffer to a total of 2.5 ml volume added. Discard flow-through. • 9) Run 3.5 ml 20 mM MES pH 6.5 buffer to elute protein. Discard column in appropriate waste receptacle. • 10) Perform Bradford assay (1:10 or 1:20 dilution). […]
# Each reaction contains 50 mM Tris-HCl, pH 7, 10 mM MgCl2, 0.15 mM NADH, 15 μg LDH, saturating amounts of EDD determined empirically (usually ˜100 μg), 1-50 μg EDA (depending on level of activity), and 1 mM 6-phosphogluconate. Reactions are started by the addition of 6-phosphogluconate and monitored for 5 mins at 30° C.
# [3] = Xylose isomerase activity assay (sorbitol dehydrogenase/NADH coupled, Kuyper et al.), soluble whole cell extract; type: biochemical, Saccharomyces cerevisiae
molecule,measurement,setting,value
"Actinoplanes missouriensis: xylose isomerase of this donor organism, expressed in S. cerevisiae",Active? (yes/no),[1],No
"Streptomyces rubiginosus: xylose isomerase of this donor organism, expressed in S. cerevisiae",Active? (yes/no),[1],No
"Bacteroides thetaiotaomicron: xylose isomerase of this donor organism, expressed in S. cerevisiae",Active? (yes/no),[1],Yes
"Thermus thermophilus: xylose isomerase of this donor organism, expressed in S. cerevisiae",Active? (yes/no),[1],Yes
"EDA-E. coli: 2-keto-3-deoxygluconate-6-phosphate aldolase (eda) of E. coli (protein, UniProt P0A955 1-213, looked up) KHG/KDPG aldolase: MKNWKTSAESILTTGPVVPVIVVKKLEHAVPMAKALVAGGVRVLEVTLRTECAVDAIRAIAKEVPEAIVGAGTVLNPQQLAEVTEAGAQFAISPGLTEPLLKAATEGTIPLIPGISTVSELMLGMDYGLKEFKFFPAEANGGVKALQAIAGPFSQVRFCPTGGISPANYRDYLALKSVLCIGGSWLVPADALEAGDYDRITKLAREAVEGAKL","EDA activity compared to the other EDAs, repeated experiment (FIG. 24)",[2]; 100 μg EDD and 25 μg EDA cell lysate (5 μg of E. coli EDA),most active of those EDA's tested
same,EDA activity compared to the other EDAs,[2]; first experiment,higher activity as compared to the other EDA activities
same,EDA activity relative to the EDA from P. aeruginosa,"[2]; first experiment, E. coli slope outside linear range",approximately 16 fold
"R. flavefaciens, FD-1 XI: xylose isomerase of Ruminococcus FD1, ZP_06143883.1, SEQ ID NO: 110 (protein, listed as Ruminococcus flavefaciens) MEFFKNISKIPYEGKDSTNPLAFKYYNPDEVIDGKKMRDIMKFALSWWHTMGGDGTDMFGCGTADKTWGENDPAARAKAKVDAAFEIMQKLSIDYFCFHDRDLSPEYGSLKDTNAQLDIVTDYIKAKQAETGLKCLWGTAKCFDHPRFMHGAGTSPSADVFAFSAAQIKKALESTVKLGGTGYVFWGGREGYETLLNTNMGLELDNMARLMKMAVEYGRSIGFKGDFYIEPKPKEPTKHQYDFDTATVLGFLRKYGLDKDFKMNIEANHATLAQHTFQHELCVARTNGAFGSIDANQGDPLLGWDTDQFPTNIYDTTMCMYEVIKAGGFTNGGLNFDAKARRGSFTPEDIFYSYIAGMDAFALGYKAASKLIADGRIDSFISDRYASWSEGIGLDIISGKADMAALEKYALEKGEVTDSISSGRQELLESIVNNVIFNL",slope of the activity at saturating xylose (FIG. 25),"[3]; 500 mM xylose, 100 μg total soluble crude extract",highest activity of the candidates tested
same,specific activity relative to the native XI control,[3]; xylose between 40 and 500 nM,greater than 2 fold
"Escherichia coli: xylose isomerase of this donor organism, expressed in S. cerevisiae (protein, UniProt P00944 1-440, looked up) Xylose isomerase: MQAYFDQLDRVRYEGSKSSNPLAFRHYNPDELVLGKRMEEHLRFAACYWHTFCWNGADMFGVGAFNRPWQQPGEALALAKRKADVAFEFFHKLHVPFYCFHDVDVSPEGASLKEYINNFAQMVDVLAGKQEESGVKLLWGTANCFTNPRYGAGAATNPDPEVFSWAATQVVTAMEATHKLGGENYVLWGGREGYETLLNTDLRQEREQLGRFMQMVVEHKHKIGFQGTLLIEPKPQEPTKHQYDYDAATVYGFLKQFGLEKEIKLNIEANHATLAGHSFHHEIATAIALGLFGSVDANRGDAQLGWDTDQFPNSVEENALVMYEILKAGGFTTGGLNFDAKVRRQSTDKYDLFYGHIGAMDTMALALKIAARMIEDGELDKRIAQRYSGWNSELGQQILKGQMSLADLAKYAQEHHLSPVHQSGRQEQLENLVNHYLFDK",Active? (yes/no),[1],No
"Bacillus subtilis: xylose isomerase of this donor organism, expressed in S. cerevisiae (protein, UniProt P0CI80 1-445, looked up, expressed in S. cerevisiae) Xylose isomerase: MAQSHSSSINYFGSANKVVYEGKDSTNPLAFKYYNPQEVIGGKTLKEHLRFSIAYWHTFTADGTDVFGAATMQRPWDHYKGMDLAKMRVEAAFEMFEKLDAPFFAFHDRDIAPEGSTLKETNQNLDMIMGMIKDYMRNSGVKLLWNTANMFTNPRFVHGAATSCNADVFAYAAAQVKKGLETAKELGAENYVFWGGREGYETLLNTDLKFELDNLARFMHMAVDYAKEIGYTGQFLIEPKPKEPTTHQYDTDAATTIAFLKQYGLDNHFKLNLEANHATLAGHTFEHELRMARVHGLLGSVDANQGHPLLGWDTDEFPTDLYSTTLAMYEILQNGGLGSGGLNFDAKVRRSSFEPDDLIYAHIAGMDAFARGLKVAHKLIEDRVFEDVIQHRYRSFTEGIGLEIIEGRANFHTLEQYALNHKSIKNESGRQEKLKAILNQYILEV",Active? (yes/no),[1],No
"Clostridium thermosulfurogenes: xylose isomerase of this donor organism, expressed in S. cerevisiae (protein, UniProt P19148 1-439, looked up) Xylose isomerase: MNKYFENVSKIKYEGPKSNNPYSFKFYNPEEVIDGKTMEEHLRFSIAYWHTFTADGTDQFGKATMQRPWNHYTDPMDIAKARVEAAFEFFDKINAPYFCFHDRDIAPEGDTLRETNKNLDTIVAMIKDYLKTSKTKVLWGTANLFSNPRFVHGASTSCNADVFAYSAAQVKKALEITKELGGENYVFWGGREGYETLLNTDMEFELDNFARFLHMAVDYAKEIGFEGQFLIEPKPKEPTKHQYDFDVANVLAFLRKYDLDKYFKVNIEANHATLAFHDFQHELRYARINGVLGSIDANTGDMLLGWDTDQFPTDIRMTTLAMYEVIKMGGFDKGGLNFDAKVRRASFEPEDLFLGHIAGMDAFAKGFKVAYKLVKDRVFDKFIEERYASYKDGIGADIVSGKADFRSLEKYALERSQIVNKSGRQELLESILNQYLFAE",Active? (yes/no),[1],No
"Bacillus licheniformis: xylose isomerase of this donor organism, expressed in S. cerevisiae (protein, UniProt P77832 1-448, looked up) Xylose isomerase: MFFRNIGMIEYEGADSENPYAFKYYNPDEFVGGKTMKEHLRFAVAYWHTFDADGKDPFGDGTMFRAWNRLTHPLDKAKARAEAAFEFFEKLGVPYFCFHDVDIVDEGATLRETFTYLDQMSSFLKEMMETSHVQLLWNTANMFTHPRYVHGAATSCNADVYAYAAAKVKKGLDIAKELGAENYVFWGGREGYETLLNTDMKLELENLSSFYRMAVEYAREIGFDGQFLIEPKPKEPTKHQYDFDAATTIAFLETYGLKDHFKLNLEANHATLAGHTFEHELRVAALHDMLGSIDANQGDLLLGWDTDEFPTDLYSAVLAMYEILKAGGFKTGGINFDAKVRRPSFADEDLFHAHIAGMDTYAVGLKVASRLLEDKALDQVIEERYESYTKGIGLEIKEGRTDLKKLAAYALENDHIENQSGRQERLKATVNRYLLNALREAPAGKETH",Active? (yes/no),[1],No
"Burkholderia xenovorans: xylose isomerase of this donor organism, expressed in S. cerevisiae (protein, UniProt Q13RB8 1-440, looked up) Xylose isomerase: MSYFEHIPEIRYEGPQSDNPLAYRHYDKSKKVLGKTLEEHLRIAVCYWHTFVWPGVDIFGQGTFRRPWQQAGDAMERARQKADSAFEFFSKLGTPYYTFHDTDVSPEGSSLKEYSENFLRITDYLARKQEDTGIKLLWGTANLFSHPRYAAGAATSPDPEVFAFAATQVRHALDATQRLGGDNYVLWGGREGYDTLLNTDLMRERDQLARFLHMVVDHAHKIGFKGSLLIEPKPQEPTKHQYDYDVATVHGFLLQHGLEKEIRVNIEANHATLAGHSFHHEIATAYALGIFGSVDANRGDPQNGWDTDQFPNSVEELTLAFYEILKHGGFTTGGMNFDSKVRRQSVDPEDLFYGHIGAIDNLALAVERAAVLIENDRLDQFKRQRYAGWDADFGRKILSGDYSLSTLATDALARGLNPQHASGHQELMENIVNQAIYSGR",Active? (yes/no),[1],No
"Staphylococcus xylosus: xylose isomerase of this donor organism, expressed in S. cerevisiae (protein, UniProt P27157 1-439, looked up) Xylose isomerase: MSYFDINKVNYEGPKSNNAFSFKYYNPEEKLGNHSMSELLRFSVAYWHTFTADLSDPFGVGVAERDWDSLDEMEKAKARVEAIFEFMEKTRIDYFCFHDVDISPEGASLKESNENLDIIVELIKEKMDQTGKKLLWNTTNNFTHERFVHGAATSSNAEVFAYAAAKVKKSLEIAKKLGSENFVFWGGREGYESLLNTNMKLELDNLATFFKMAKSYADEIGYTGQFLIEPKPKEPTTHQYDTDVATAHAFLQKYDLDKDFKFNIEANHATLAGHTFQHELRYARDNNMLGSVDANQGHPLLGWDTDESTDVYDTTLAMYEILKNGGLAPGGLNFDAKPRRTSFKQEDLILTHIAGMDTFALGLRVAYKMIEDNFFENIMDEKYKSFNEGIGKKIVEGETSLKELEDYAFNINTINNTSDHLEVIKSQINQYILNINNKD",Active? (yes/no),[1],No
